40 sequences from the nanobody polyreactivity screen of Harvey et al. (2022) can be followed below.

The series in a line: yeast display, Sf9 membrane polyspecificity reagent, FACS + sequencing; frameworks hold sequencing errors. In outline: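 A synthetic nanobody library was expressed on Saccharomyces cerevisiae BJ5465 by galactose induction for 36–48 hours. The library was stained for 1 hour at 4 °C with 10% biotinylated, detergent-solubilized Sf9 membrane reagent and enriched with streptavidin microbeads before FACS. Low and high (top ~1%) gates were set on anti-HA fluorescence for expression and streptavidin fluorescence for reagent binding, and each polyreactivity label reflects the gate of origin.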
Regarding “QVQLVESGGGLVQAGGSLRLSCAASGSIFASNTMGWYRQAPGKERELVAGITKIGSSTYYADSVKGRFTISRDNAKNTVYLQMNSLKPEDTAVYYGNADYYFSWGSIEDYWGQGTQVSVSS”, the “polyreactivity (PSR sort gate)” value is listed as “low polyreactivity”.
Under “QVQLVESGGGLVQAGGSLRLSCAASGSIFASYAMGWYRQAPGKERELVAAISRSGGSTYYADSVKGRFTISRDNAKNTVYLQMNSLKPEDTAVYYCATGKIREDDYWGQGTQVTVSS” stands “high polyreactivity”.
With “QVQLVESGGGLVQAGGSLRLSCAASGSIFATNTMGWYRQSPGKERELVATISSSDSTNYADSVKGRFTISRDNAKNTVYLEMNSLKPVDTAVYYCNKAYVDSTHGSYRWTYDYWGQGTQVTVSS”, the “polyreactivity (PSR sort gate)” value is on record as “low polyreactivity”.
As for “QVQLVESGGGLVQAGGSLRLSCAASGSIFATYAMGWYRQAPGKERELVAAITSSDGSTNYADSVKGRFTISRDNAKNTVDLQMNRLKPEDTAVYYCATDAPDRTDSDSGFDAGYDYWGQGTQVTLSS”, the “polyreactivity (PSR sort gate)” value is “low polyreactivity”.
Under “QVQLVESGGGLVQAGGSLRLSCAASGSIFAVNAMGWYRQAPGKERELVAAITSGGNTYYADSVKGRFTISRDNAKNTVYLQMNSLKPEDTAVYYCATVFSVQGWYFGMNYWGQGTQVTVSS” stands “low polyreactivity”; under “QVQLVESGGGLVQAGGSLRLSCAASGSIFAVYAMGRYRQAPGKERELVASISRTGTTNYADSVKGRFTISRDNAKNTVYLQMNSLKPEDTAVYYCNADAYLYYKYHWGFTFYQYEYWGQGTQVTVSS”, “low polyreactivity”.
Consider “QVQLVESGGGLVQAGGSLRLSCAASGSIFAVYAMGWYRQAPGKERELVATISGRGGSTYYADSVKVRFTISRDNAKNTVYLQMNSLKPEDTAVYYCNARVLFRRERMDSWGQGTKVTVSS”, for which the “polyreactivity (PSR sort gate)” value is listed as “high polyreactivity”.
Next, “QVQLVESGGGLVQAGGSLRLSCAASGSIFAVYAMGWYRQAPGKERELVAVITRSGGSTYYADSVKGRFTISRDNAKNTVYLQMNSLKPEDTAVYYCAARRSYLLRYDYWGQGTQVTVSS”: “high polyreactivity”; “QVQLVESGGGLVQAGGSLRLSCAASGSIFAVYTMGWYRQAPGKEREFVAAITKSGGRTYYADSVKGRFTISRDNAKNTVYLQMNSLNPEDTAFYYCARRRTIPYTLVDYDSWGQGTQVTVSS”: “low polyreactivity”; “QVQLVESGGGLVQAGGSLRLSCAASGSIFAWYAMGWYRRAPGKESELVAAITWSGGSTYYADSVKGRFTISRDNAKNTVYLQMNSMKQEDTAVYYCAVEWYYRNNAIISGYYYWGKGTQVTVSS”: “high polyreactivity”.
Regarding “QVQLVESGGGLVQAGGSLRLSCAASGSIFAWYGMGWYRQAPGKERELVAAITSTGSTYYADSVKGRFTISRDNAKKTVYLQMNSLKPEDTAVYYCNAYSVYLWRPGDYWGQGTQVTVSS”, the “polyreactivity (PSR sort gate)” value was “low polyreactivity”.
In the case of “QVQLVESGGGLVQAGGSLRLSCAASGSIFAWYTMGWYRQAPGKERELVATITRGGSTTYADSVKGRFTISRDNAKITVYLQMNSLKPEDTAVYYCAADWRTKGYDSLGQGTQVTVSS”, the “polyreactivity (PSR sort gate)” value was “high polyreactivity”.
“QVQLVESGGGLVQAGGSLRLSCAASGSIFAYNAMGRYRPAPGKERELGAAITSDDSTNYADSVKGRFTISRDNAKNSVYLQMNSLKPEDTAVYYCAAYYYYTYIIGYDYCGQGTQVTVSS”: the “polyreactivity (PSR sort gate)” value is on record as “low polyreactivity”.
In the case of “QVQLVESGGGLVQAGGSLRLSCAASGSIFAYNAMGWYRQAPGKERELVAAISSGGRTKYADSVKGRFTISRDNAKNTVYLQMNSLKPEDTAVYYCAAESYTGKYSWVWKWYDYWGQGTQVTVSS”, the “polyreactivity (PSR sort gate)” value was “low polyreactivity”.
Consider “QVQLVESGGGLVQAGGSLRLSCAASGSIFAYNTMGWYRQAPGKEREFVAAISWRGGSTYYADSVKGRFTISRDNAKNTVYLQMTSLKPEDTAVYYCNARYRNTFYTRRYDYWGQGTQVTVSS”, for which the “polyreactivity (PSR sort gate)” value is “high polyreactivity”.
With “QVQLVESGGGLVQAGGSLRLSCAASGSIFAYYALGWYRQAPGKERELVASIDWSGDLYVRDSVKGRFTISRDNAKNTVYFLMNSLKPEDTAVYYCAKDVSFQYGTGYDYWGQGNQVTVSS”, the “polyreactivity (PSR sort gate)” value is given as “low polyreactivity”.
Consider “QVQLVESGGGLVQAGGSLRLSCAASGSIFAYYAMGWYRQAPGKERELVAAIDSGGGTSYADSVKGRFTISRDNAKNTVYLQMNSLNPEDTAVYYCNAAGYVVYYRIIAFGYWGQGTLVTVSS”, for which the “polyreactivity (PSR sort gate)” value was “low polyreactivity”.
Take “QVQLVESGGGLVQAGGSLRLSCAASGSIFAYYAMGWYRQAPGKERELVAAITSGDSTYYADSVKGRFTISRDNAKNTVYLQMNSLKPEDTAVYYCAADVSWRSNWYDYWGQGTQVTVSS”: the “polyreactivity (PSR sort gate)” value is on record as “low polyreactivity”.
As for “QVQLVESGGGLVQAGGSLRLSCAASGSIFAYYTMGWYRQAPGKEREFVAAISYSGGSTYYADSVKGRFTISRDNAKNTVYLQMNSLKPEDTAVYYCFPGKTRLYGYWGQGTQVTVSS”, the “polyreactivity (PSR sort gate)” value is recorded as “high polyreactivity”.
Turning to “QVQLVESGGGLVQAGGSLRLSCAASGSIFAYYVMGWYRQAPGKERELVAAISRSGGRTYYADSVKGRFTISRDNAKNTVYLQMNSLKPEETAVYYCNSELYSRPPGAQDPRLRFDYWGQGTQVTVSS”, the “polyreactivity (PSR sort gate)” value is reported as “high polyreactivity”.
As to “QVQLVESGGGLVQAGGSLRLSCAASGSIFCYYAMGWYRQAPGKERELVATITSGGSTSYADSVKGRFTISRDNAKNTVYLQMNSLKPEDTAVYYCAAARLFTTYDWGQGTQVTVSS”, the “polyreactivity (PSR sort gate)” value is “low polyreactivity”.
With “QVQLVESGGGLVQAGGSLRLSCAASGSIFDAYMGWYRQAPGKERELVAGITRSGGSTYYADSVKGRFTISRDNAKNSVYLQMNSLKPEDTAVYYCAADYSSDGDYWGQGTQVTVSS”, the “polyreactivity (PSR sort gate)” value was “low polyreactivity”.
With “QVQLVESGGGLVQAGGSLRLSCAASGSIFDDYAMGWYRQAPGKERELVAAITSGGSTYYADSVKGRFTISRDNAKKTVYLLMYSLKPEDTAVYFRATRYHWSSSFAPVGAYGYWGQGTQVTVSS”, the “polyreactivity (PSR sort gate)” value is recorded as “low polyreactivity”.
“QVQLVESGGGLVQAGGSLRLSCAASGSIFDFNAMGWYRQAPGKERELVAAITWGGGSTYYADSVKGRFTISRDNAKNTVYLQMNSLKPEDTAVYYCNAAYGRYRYDYWGQGTQVTVSS”: the “polyreactivity (PSR sort gate)” value is recorded as “low polyreactivity”.
As for “QVQLVESGGGLVQAGGSLRLSCAASGSIFDFYAMGRYRQAPGKERELVAAISYSGSSTYYADSVKGRFTISRDNAKNTVYLQMNSLKPEDTAVDYCATDYPGGYVYYSRFDYWGQGTQVTVSS”, the “polyreactivity (PSR sort gate)” value is “low polyreactivity”.
For the sequence “QVQLVESGGGLVQAGGSLRLSCAASGSIFDFYAMGWYRQAPGKERELVAAINSGGRTYADSVKGRFTISRDNAKNTVYLQMNSLKPEDTAVYYCAAEYQYLSVEVTDIWYLTKYDYWGQGTQVTVSS”, the “polyreactivity (PSR sort gate)” value is reported as “low polyreactivity”.
For “QVQLVESGGGLVQAGGSLRLSCAASGSIFDFYAMGWYRQAPGKERELVATITASGGSTYYADSVKGRFTISRDNAKNTVYLQMNSLKPEDTAVSYCNADSVYWGQGTQVTVSS”, the “polyreactivity (PSR sort gate)” value is reported as “low polyreactivity”.
“QVQLVESGGGLVQAGGSLRLSCAASGSIFDGYAMGGSRQAPGNERELLAAISSGTSTNYADSVKGRFTISRDNAKNTVYLQMNSLKPEDTAVYYCNAYPPYLYATYDYWGQGTQVTVSS”: the “polyreactivity (PSR sort gate)” value is recorded as “low polyreactivity”.
For “QVQLVESGGGLVQAGGSLRLSCAASGSIFDGYAMGWYRQAPGKEREFVAAITKRTGRTYYADSVKGRFTISRDNAKNTVYLQMNSLKPEDTAVYYCAAAIPRFSAGHYDYCGQGTQVTVSS”, the “polyreactivity (PSR sort gate)” value was “high polyreactivity”.
Next, “QVQLVESGGGLVQAGGSLRLSCAASGSIFDGYAMGWYRQAPGKEREFVASIRFSTGRTYYADSVKGRFTISRDNAKNSVYLQMNSLKPEDTAGYYCNAPQGFVWRYSSWGPYDYWGQGTQVTVSS”: “high polyreactivity”; “QVQLVESGGGLVQAGGSLRLSCAASGSIFDHNAMGWYRQAPGKEREFVARITSSGGGTYYADSVKGRFTISRDNAKNTVYLQMNSLKPEDTAVYYCAKTYYRQGARYPTLFYYWGQGTQVTVSS”: “low polyreactivity”.
Next, “QVQLVESGGGLVQAGGSLRLSCAASGSIFDKNAMGWYRQAPGKERELVAAISRSGGRTYYADSVKGRFTISRDNAKNTVYLQMNSLKPEDTAVYYCNAVYYYRPYWRQSTLSQYGYWGQGTQVTVSS”: “high polyreactivity”.
As to “QVQLVESGGGLVQAGGSLRLSCAASGSIFDLNAMGWYRQAPGKERELVAAISKSGGSTYYADSVKGRFTISRDNAKNTVYLQMNSLKPEDTAVYYCAKDRKYHLSGGYDYWGQGSQVTVSS”, the “polyreactivity (PSR sort gate)” value is on record as “low polyreactivity”.
Consider “QVQLVESGGGLVQAGGSLRLSCAASGSIFDLNAMGWYRQAPGKERELVAAISSGGGTYYADSVKGRFTISRDNAKNTVYLKMNSLKPEDTAVYYCKRVTRWTYNYWGQGTQVSVSS”, for which the “polyreactivity (PSR sort gate)” value was “high polyreactivity”.
“QVQLVESGGGLVQAGGSLRLSCAASGSIFDLNAMGWYRQAPGKERELVAAISSVGGTYYADSVKGRFTISRDNAKNTGYLQMNSLKPEDTAVYYCNRVTRWTYNYWGQGTQVTVSS”: the “polyreactivity (PSR sort gate)” value is given as “high polyreactivity”.
Next, “QVQLVESGGGLVQAGGSLRLSCAASGSIFDLYAMGWYRQAPGKERELVAGISYSGGSTYYADSVKGRFTISRDNAKNTVYLQMNSLKPEDTAVYYCAADDSYWYDNYIDEAAANTFDYWGQGTQVTVSS”: “low polyreactivity”; “QVQLVESGGGLVQAGGSLRLSCAASGSIFDNYAMGWYRQAPGKERELVAAINFSDGDTYYADSVKGRFTISRDNAKNTVYLQMNSLKPEDTAVYYCAAEVWYPPEYYDEYDYWGQGTQVTVSS”: “low polyreactivity”; “QVQLVESGGGLVQAGGSLRLSCAASGSIFDPYAMGGYRQAPGKERELVAAISFITGGTYYADSVMGRFTISRDNAMNTVYLQMNSLKPEDTAVYYCNADYFYKGGWVWRDEYWGQGTQVTVSS”: “high polyreactivity”.
With “QVQLVESGGGLVQAGGSLRLSCAASGSIFDPYAMGWYRQAPGKEREFVAAISWSGGSTYYADSVKGRFTISRDNAKNTVYLQMNSLIPEDTAVYYCAAGTQWYSQVYIYYYWGQGTQVTVSS”, the “polyreactivity (PSR sort gate)” value is given as “low polyreactivity”.
As to “QVQLVESGGGLVQAGGSLRLSCAASGSIFDPYAMGWYRQAPGKERELVAAITASASSTYYADSVKGRFTISRDNAKNTVYLQMYSLKPEDTAVYYCAADRANWEYLLSLLGYDYWGQGTQVTVSS”, the “polyreactivity (PSR sort gate)” value is “low polyreactivity”.
